Measured values as given in paper PMC8204981, “Helicobacter pylori GmhB enzyme involved in ADP-heptose biosynthesis pathway is essential for lipopolysaccharide biosynthesis and bacterial virulence” (Virulence, 2021).

Columns and labels:
[1] = test system: O=P(O)(O)OC[C@@H](O)[C@H]1O[C@@H](OP(=O)(O)O)[C@@H](O)[C@@H](O)[C@@H]1O; experiment: purified protein; conditions: 20 mM HEPES pH 8.0, 10 mM MgCl2, 10 mM KCl, 25 °C, 30 min
From the text: (§1) malachite green phosphate release assay, Michaelis-Menten fit on HP0860 protein (H. pylori GmhB)

[2] = test system: O=P(O)(O)OC[C@@H](O)[C@H]1O[C@H](OP(=O)(O)O)[C@@H](O)[C@@H](O)[C@@H]1O; experiment: purified protein; conditions: 20 mM HEPES pH 8.0, 10 mM MgCl2, 10 mM KCl, 25 °C, 30 min
From the text: as §1

HP0860 protein (H. pylori GmhB) (Helicobacter pylori 26695)
Km [1]: 210 ± 50 µM | kcat [1]: 2.18 ± 0.17 s⁻¹ | kcat/Km [1]: 10400 M⁻¹ s⁻¹ | Km [2]: 300 ± 80 µM | kcat [2]: 1.07 ± 0.1 s⁻¹ | kcat/Km [2]: 3570 M⁻¹ s⁻¹
